{"source": "paper PMC6163367", "key": {"[1]": {"target": "integrin αvβ3 (mouse (endogenous in mouse synovial cells)) (UniProt P43406)", "sequence (P43406 31-1044, chain 1 of 2)": "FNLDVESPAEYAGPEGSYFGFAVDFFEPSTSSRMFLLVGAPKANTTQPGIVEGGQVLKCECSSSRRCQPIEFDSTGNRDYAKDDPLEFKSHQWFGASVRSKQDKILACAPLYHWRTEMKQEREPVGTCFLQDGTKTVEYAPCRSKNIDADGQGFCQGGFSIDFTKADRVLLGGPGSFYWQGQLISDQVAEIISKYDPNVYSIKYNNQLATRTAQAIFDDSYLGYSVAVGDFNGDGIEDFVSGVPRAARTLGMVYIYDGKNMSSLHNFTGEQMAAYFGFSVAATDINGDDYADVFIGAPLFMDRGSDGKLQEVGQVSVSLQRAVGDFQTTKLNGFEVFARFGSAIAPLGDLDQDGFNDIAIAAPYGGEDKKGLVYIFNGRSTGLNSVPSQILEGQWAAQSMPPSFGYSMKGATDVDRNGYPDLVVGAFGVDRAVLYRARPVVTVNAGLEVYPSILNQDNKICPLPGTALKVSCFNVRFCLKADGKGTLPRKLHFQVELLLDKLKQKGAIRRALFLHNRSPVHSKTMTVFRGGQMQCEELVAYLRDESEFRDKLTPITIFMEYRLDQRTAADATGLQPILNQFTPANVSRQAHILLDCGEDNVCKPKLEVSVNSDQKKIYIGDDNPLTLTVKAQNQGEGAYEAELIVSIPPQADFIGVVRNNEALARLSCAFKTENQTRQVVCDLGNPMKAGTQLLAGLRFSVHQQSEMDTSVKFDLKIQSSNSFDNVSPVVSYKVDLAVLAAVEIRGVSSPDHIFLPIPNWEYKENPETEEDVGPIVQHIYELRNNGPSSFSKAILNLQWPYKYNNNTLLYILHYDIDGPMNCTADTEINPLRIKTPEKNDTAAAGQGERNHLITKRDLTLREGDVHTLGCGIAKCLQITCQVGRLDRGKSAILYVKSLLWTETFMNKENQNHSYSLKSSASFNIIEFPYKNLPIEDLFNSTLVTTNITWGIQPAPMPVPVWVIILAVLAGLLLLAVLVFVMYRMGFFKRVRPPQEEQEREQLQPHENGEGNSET", "sequence (O54890 26-787, chain 2 of 2, further chain)": "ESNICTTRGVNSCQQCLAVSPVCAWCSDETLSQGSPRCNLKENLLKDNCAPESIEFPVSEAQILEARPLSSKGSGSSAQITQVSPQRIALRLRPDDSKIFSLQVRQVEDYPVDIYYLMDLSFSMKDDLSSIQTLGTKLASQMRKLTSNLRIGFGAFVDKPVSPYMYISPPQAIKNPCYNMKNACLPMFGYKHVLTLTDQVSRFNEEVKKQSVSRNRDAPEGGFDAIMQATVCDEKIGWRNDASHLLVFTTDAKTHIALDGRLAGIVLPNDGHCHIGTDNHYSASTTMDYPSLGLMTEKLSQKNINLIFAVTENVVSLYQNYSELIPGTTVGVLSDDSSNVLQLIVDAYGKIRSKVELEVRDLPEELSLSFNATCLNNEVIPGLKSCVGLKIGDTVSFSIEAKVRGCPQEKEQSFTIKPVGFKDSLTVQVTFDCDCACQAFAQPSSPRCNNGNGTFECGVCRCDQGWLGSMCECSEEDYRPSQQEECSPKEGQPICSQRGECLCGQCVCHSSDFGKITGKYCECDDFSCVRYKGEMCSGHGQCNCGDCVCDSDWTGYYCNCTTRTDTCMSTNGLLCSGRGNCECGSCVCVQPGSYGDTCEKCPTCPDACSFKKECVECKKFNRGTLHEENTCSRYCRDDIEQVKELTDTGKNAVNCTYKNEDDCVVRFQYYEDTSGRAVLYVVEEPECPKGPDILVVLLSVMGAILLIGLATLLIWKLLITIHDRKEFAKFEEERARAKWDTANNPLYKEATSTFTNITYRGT", "assay": "flow cytometry on cells; mouse synovial cells blocked with 1% BSA, incubated with 1, 10 or 75 uM HM-3-Fc for 1 h at 4 °C, no blocking antibody; FITC-protein A as probe for the Fc part"}, "[2]": {"target": "integrin α5β1 (mouse (endogenous in mouse synovial cells)) (UniProt P11688)", "sequence (P11688 45-1053, chain 1 of 2)": "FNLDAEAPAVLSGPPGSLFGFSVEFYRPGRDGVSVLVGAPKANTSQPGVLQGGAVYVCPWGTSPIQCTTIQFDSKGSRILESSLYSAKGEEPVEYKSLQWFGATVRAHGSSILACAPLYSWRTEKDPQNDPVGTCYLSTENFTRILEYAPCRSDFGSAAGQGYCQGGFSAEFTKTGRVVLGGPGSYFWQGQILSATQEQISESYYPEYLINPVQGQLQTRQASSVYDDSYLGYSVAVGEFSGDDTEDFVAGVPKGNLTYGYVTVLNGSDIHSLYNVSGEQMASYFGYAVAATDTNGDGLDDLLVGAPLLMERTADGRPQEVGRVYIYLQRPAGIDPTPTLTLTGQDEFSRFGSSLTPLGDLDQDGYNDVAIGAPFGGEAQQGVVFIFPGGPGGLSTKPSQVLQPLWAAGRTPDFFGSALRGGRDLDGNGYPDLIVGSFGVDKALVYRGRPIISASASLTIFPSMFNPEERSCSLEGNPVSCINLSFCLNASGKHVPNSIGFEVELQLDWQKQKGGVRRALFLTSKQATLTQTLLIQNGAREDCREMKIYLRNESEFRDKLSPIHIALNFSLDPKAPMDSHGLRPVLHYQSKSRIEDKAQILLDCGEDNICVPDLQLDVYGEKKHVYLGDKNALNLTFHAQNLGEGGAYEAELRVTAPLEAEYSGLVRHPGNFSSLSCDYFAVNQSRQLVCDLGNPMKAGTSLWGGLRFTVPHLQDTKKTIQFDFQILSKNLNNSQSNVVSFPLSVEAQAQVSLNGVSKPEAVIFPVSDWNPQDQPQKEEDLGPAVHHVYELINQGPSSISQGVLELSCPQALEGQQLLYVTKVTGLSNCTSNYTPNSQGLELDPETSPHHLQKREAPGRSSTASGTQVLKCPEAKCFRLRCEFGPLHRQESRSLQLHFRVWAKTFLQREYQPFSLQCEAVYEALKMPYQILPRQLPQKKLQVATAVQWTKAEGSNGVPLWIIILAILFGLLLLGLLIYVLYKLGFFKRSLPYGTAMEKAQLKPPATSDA", "sequence (P09055 21-798, chain 2 of 2, further chain)": "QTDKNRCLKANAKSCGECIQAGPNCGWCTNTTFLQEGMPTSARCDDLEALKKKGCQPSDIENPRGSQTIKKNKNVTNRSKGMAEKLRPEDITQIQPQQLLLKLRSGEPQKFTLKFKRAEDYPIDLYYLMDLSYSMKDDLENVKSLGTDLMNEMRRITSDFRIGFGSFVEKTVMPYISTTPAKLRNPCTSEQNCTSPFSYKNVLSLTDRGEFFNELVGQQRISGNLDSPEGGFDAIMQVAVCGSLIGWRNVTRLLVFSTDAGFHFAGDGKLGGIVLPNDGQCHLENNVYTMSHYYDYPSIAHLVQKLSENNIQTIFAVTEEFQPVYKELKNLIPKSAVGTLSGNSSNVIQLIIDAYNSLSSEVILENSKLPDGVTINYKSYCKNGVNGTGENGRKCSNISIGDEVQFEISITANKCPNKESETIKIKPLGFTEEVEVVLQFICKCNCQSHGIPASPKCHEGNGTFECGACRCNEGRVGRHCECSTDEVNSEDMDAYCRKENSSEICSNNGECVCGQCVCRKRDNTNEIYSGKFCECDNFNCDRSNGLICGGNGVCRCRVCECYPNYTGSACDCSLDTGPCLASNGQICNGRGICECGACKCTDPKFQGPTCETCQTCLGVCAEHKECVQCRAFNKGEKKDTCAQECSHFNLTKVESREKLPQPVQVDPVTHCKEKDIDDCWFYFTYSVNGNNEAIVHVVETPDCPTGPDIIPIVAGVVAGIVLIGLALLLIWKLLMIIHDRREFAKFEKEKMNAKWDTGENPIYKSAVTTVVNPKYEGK", "assay": "flow cytometry on cells; mouse synovial cells blocked with 1% BSA, incubated with 1, 10 or 75 uM HM-3-Fc for 1 h at 4 °C, no blocking antibody; FITC-protein A as probe for the Fc part"}, "[3]": {"target": "integrin αvβ3 (mouse (endogenous in mouse synovial cells)) (UniProt P43406)", "assay": "flow cytometry on cells; mouse synovial cells first incubated with anti-αvβ3, anti-α5β1 or both blocking antibodies for half an hour at 4 °C, washed, then 75 uM HM-3-Fc for 1 h at 4 °C; FITC-protein A as probe"}, "[4]": {"target": "integrin α5β1 (mouse (endogenous in mouse synovial cells)) (UniProt P11688)", "assay": "flow cytometry on cells; mouse synovial cells first incubated with anti-αvβ3, anti-α5β1 or both blocking antibodies for half an hour at 4 °C, washed, then 75 uM HM-3-Fc for 1 h at 4 °C; FITC-protein A as probe"}}}
{"substance": "HM-3-Fc fusion protein", "values": [{"measurement": "binding rate (percent of cells positive) at 75 umol/L, unblocked cells that carry both integrins", "setting": "[1]", "value": 70.7, "unit": "%"}, {"measurement": "binding rate (percent of cells positive) at 75 umol/L, unblocked cells that carry both integrins", "setting": "[2]", "value": 70.7, "unit": "%"}, {"measurement": "binding rate (percent of cells positive) at 75 umol/L after block of αvβ3 and α5β1 together", "setting": "[3]", "value": 0.01, "unit": "%"}, {"measurement": "binding rate (percent of cells positive) at 75 umol/L after block with an anti-αvβ3 antibody", "setting": "[3]", "value": 1.4, "unit": "%"}, {"measurement": "binding rate (percent of cells positive) at 75 umol/L after block of αvβ3 and α5β1 together", "setting": "[4]", "value": 0.01, "unit": "%"}, {"measurement": "binding rate (percent of cells positive) at 75 umol/L after block with an anti-α5β1 antibody", "setting": "[4]", "value": 11.2, "unit": "%"}]}
